Results on four molecules are retold here after publication PMC4598320, “Novel binders derived from an albumin-binding domain scaffold targeting human prostate secretory protein 94 (PSP94)” (Protein & Cell, 2015).

Several values for one entry are separate records, joined by “and”; a condition that tells them apart may be missing. Equal values may be shown once. Ends that are not written are not given here.

The target of assay [1] is T1, PSP94 of LNCaP prostate cancer cells (membrane-bound on the cell surface); intracellular in permeabilized … (human (endogenous in LNCaP), UniProt P08118 21-114).
T1 construct: the cells were not transfected; source: endogenous, LNCaP cells (on the cell surface; inside permeabilized cells)
T1 sequence (looked up): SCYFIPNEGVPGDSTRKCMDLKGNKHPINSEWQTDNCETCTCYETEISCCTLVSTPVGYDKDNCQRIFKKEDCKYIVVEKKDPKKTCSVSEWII
The assay can be described thus: flow cytometry on cells; competition: LNCaP cells with (80 µg/mL) or without rabbit polyclonal antibody sc-68920 for 15 min on ice, then PAB binders at 10 µg/mL for 30 min; streptavidin-PE. Particulars: one partner purified. A general note: In flow cytometry, cells or beads pass a laser one at a time.

In assay [2] the target is T2, recombinant HisTag-PSP94 (human prostate secretory protein 94) (human, UniProt P08118 21-114, fluorescent label (in the microscale thermophoresis only)).
T2 construct: prostate secretory protein 94 (PSP94, β-microseminoprotein), human, product of the MSMB gene; The letter has no methods section; the construct may be told in the supplementary file; also called His-PSP94; β-microseminoprotein; not shown: His tag, N-terminal, kept
T2 sequence (looked up): T1 sequence (looked up)
Put plainly: MST; fluorescently labelled HisTag-PSP94 in solution, PAB variants titrated; thermophoresis + T-jump data, NanoTemper software. The conditions noted are these: both partners purified.

A further assay deals with both these PAB proteins. Put plainly: flow cytometry on cells; competition: PAB variants mixed with increasing concentrations of recombinant HisTag-PSP94 and left to bind LNCaP cells for 30 min; streptavidin-PE; binding without PSP94 taken as 100%; pair recombinant PSP94 with PAB.

B1: PAB046 (HisTag-PAB-TolA-AviTag fusion protein) (designed binder)
chain: LAEAKVLANRELDKYGVSDRYKNAINRAPAVWWVKRLIDAILAALP
modifications: not fully specified (N-terminus, C-terminus)
notes: numbers count on: the 46-residue ABD scaffold; positions 20-46 of the ABD scaffold with the 11 randomized positions as selected in PAB046; 46-residue ABD variant linked to a 305-residue TolA spacer with a C-terminal AviTag; also called PAB046 variant; source: E. coli, purified, in vivo biotinylated; not shown: His tag, N-terminal, kept; TolA spacer (helical, 305 amino acids), C-terminal, kept; …
As for B1, the “percent inhibition of binding by polyclonal antibody sc-68920 (the pair that is blocked)” value (“percent inhibition of binding” for short) in assay [1] was 30%. In assay [2], the equilibrium dissociation constant (Kd) – broadly, the free concentration of one partner at which half of the binding sites on the other are occupied at equilibrium, for simple one-to-one binding – is 49 ± 10 nM.

B2: PAB050 (HisTag-PAB-TolA-AviTag fusion protein) (designed binder)
chain: LAEAKVLANRELDKYGVSDLYKNHINTAWRVAAVKRAIDLILASLP
modifications: not fully specified (N-terminus, C-terminus)
notes: numbers count on: the 46-residue ABD scaffold; positions 20-46 of the ABD scaffold with the 11 randomized positions as selected in PAB050; 46-residue ABD variant linked to a 305-residue TolA spacer with a C-terminal AviTag; also called PAB50; PAB050 variant; source: E. coli, purified, in vivo biotinylated; not shown: His tag, N-terminal, kept; TolA spacer (helical, 305 amino acids), C-terminal, …
With B2, the “percent inhibition of binding” value in assay [1] was found to be 30%. For the same molecule, the dissociation constant (Kd) in assay [2] is 10 nM and 12 nM and 21 nM.

B3: recombinant HisTag-PSP94 (human prostate secretory protein 94) (natural protein)
chain: T1 sequence (looked up)
modifications: fluorescent label (in the microscale thermophoresis only)
For B3, the percent inhibition of PAB binding to LNCaP cells at 20 µg/mL PSP94 in the assay with both these PAB proteins lay within 5 to 10%.

B4: PAB036 (HisTag-PAB-TolA-AviTag fusion protein) (designed binder)
chain: LAEAKVLANRELDKYGVSDWYKNGINPAHRVRWVKGRIDAILARLP
modifications: not fully specified (N-terminus, C-terminus)
notes: numbers count on: the 46-residue ABD scaffold; positions 20-46 of the ABD scaffold with the 11 randomized positions as selected in PAB036; 46-residue ABD variant linked to a 305-residue TolA spacer with a C-terminal AviTag; also called PAB036 variant; source: E. coli, purified, in vivo biotinylated; not shown: His tag, N-terminal, kept; TolA spacer (helical, 305 amino acids), C-terminal, kept; …
For B4, in assay [1], the “percent inhibition of binding” value was approximately 15%. Besides, in assay [2], the Kd was 40 nM and 72 nM.
